Laboratory results: article PMC10746525
pKd: −log10 of the molar value.

Key:
GCN4-TRAK1_(342-431) [1] = biological target: GCN4-TRAK1_(342-431) (UniProt Q9UPV9); assay: ITC; VP-ITC, 25 °C; ITC buffer (20 mM Hepes pH 7.5, 400 mM NaCl, 1 mM MgCl2, 5% w/v sucrose, 0.1 μM GTP) with 50 μM CaCl2; MIRO1_(177-591) in the syringe, TRAK1 construct in the cell
GCN4-TRAK1_(342-431) [2] = biological target: GCN4-TRAK1_(342-431) (UniProt Q9UPV9); assay: ITC; VP-ITC, 25 °C; ITC buffer (20 mM Hepes pH 7.5, 400 mM NaCl, 1 mM MgCl2, 5% w/v sucrose, 0.1 μM GTP) with 5 mM EGTA; the binder of each row in the syringe

Sequence of MIRO1_(177-591) (Q8IXI2 177-591): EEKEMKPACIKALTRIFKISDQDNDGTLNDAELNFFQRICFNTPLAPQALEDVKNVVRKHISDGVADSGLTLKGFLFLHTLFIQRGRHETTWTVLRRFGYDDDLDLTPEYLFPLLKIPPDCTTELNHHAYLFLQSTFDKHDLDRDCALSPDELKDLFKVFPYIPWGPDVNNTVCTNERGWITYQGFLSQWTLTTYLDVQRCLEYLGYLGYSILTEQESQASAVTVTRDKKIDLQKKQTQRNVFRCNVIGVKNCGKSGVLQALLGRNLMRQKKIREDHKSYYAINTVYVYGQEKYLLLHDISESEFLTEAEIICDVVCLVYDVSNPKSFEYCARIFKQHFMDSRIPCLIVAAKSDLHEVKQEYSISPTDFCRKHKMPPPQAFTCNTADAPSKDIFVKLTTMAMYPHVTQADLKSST

A pKd (GCN4-TRAK1_(342-431) [1]) of 5.15, a stoichiometry N (GCN4-TRAK1_(342-431) [1]) of 1.93 and a pKd (GCN4-TRAK1_(342-431) [2]) of 5.29 were found for “MIRO1_(177-591) (from UniProt Q8IXI2 177-591) (domain or fragment)” in this work. The stoichiometry N (GCN4-TRAK1_(342-431) [2]) was 1.84.
